What was measured:
GCN4 DBD WT = GCN4 DBD WT (Saccharomyces cerevisiae, UniProt P03069 228-281); test: FP; apparent; FP: PBS (137 mM NaCl, 2.7 mM KCl, 10 mM Na2HPO4, 1.8 mM KH2PO4) pH 7.4, 20 C, 10 nM duplex, 28 ng/ul herring testes DNA competitor; EMSA per cited ref with competitor DNA; conditions: protein: recombinant; tags: MBP; chain copies: 2; label: rhodamine 5' of strand 1; 5' overhang 1 nt each end
ZEBRA DBD WT = ZEBRA DBD WT (Epstein-Barr virus, UniProt P03206 175-236); test: FP; apparent, Hill n=2; FP: PBS (137 mM NaCl, 2.7 mM KCl, 10 mM Na2HPO4, 1.8 mM KH2PO4) pH 7.4, 20 C, 10 nM duplex, 28 ng/ul herring testes DNA competitor; EMSA per cited ref with competitor DNA; conditions: protein: recombinant; tags: MBP; chain copies: 2; label: rhodamine 5' of strand 1; 5' overhang 1 nt each end
Strep/FLAG:ZEBRA [1] = molecular target: T1, Strep/FLAG:ZEBRA (Epstein-Barr virus, UniProt P03206 149-245); test: EMSA; intermediate, similar to hemi-methylated sites; FP: PBS (137 mM NaCl, 2.7 mM KCl, 10 mM Na2HPO4, 1.8 mM KH2PO4) pH 7.4, 20 C, 10 nM duplex, 28 ng/ul herring testes DNA competitor; EMSA per cited ref with competitor DNA; conditions: protein: recombinant; tags: StrepII/FLAG; chain copies: 2; 5' overhang 2 nt each end
Strep/FLAG:ZEBRA [2] = molecular target: T1, Strep/FLAG:ZEBRA; test: EMSA; tightest; FP: PBS (137 mM NaCl, 2.7 mM KCl, 10 mM Na2HPO4, 1.8 mM KH2PO4) pH 7.4, 20 C, 10 nM duplex, 28 ng/ul herring testes DNA competitor; EMSA per cited ref with competitor DNA; conditions: protein: recombinant; tags: StrepII/FLAG; chain copies: 2; 5' overhang 2 nt each end
Strep/FLAG:ZEBRA [3] = molecular target: T1, Strep/FLAG:ZEBRA; test: EMSA; between ZRE2 and meZRE2; slightly stronger than hemi C-2'; FP: PBS (137 mM NaCl, 2.7 mM KCl, 10 mM Na2HPO4, 1.8 mM KH2PO4) pH 7.4, 20 C, 10 nM duplex, 28 ng/ul herring testes DNA competitor; EMSA per cited ref with competitor DNA; conditions: protein: recombinant; tags: StrepII/FLAG; chain copies: 2; 5' overhang 2 nt each end
Strep/FLAG:ZEBRA [4] = molecular target: T1, Strep/FLAG:ZEBRA; test: EMSA; between ZRE2 and meZRE2; FP: PBS (137 mM NaCl, 2.7 mM KCl, 10 mM Na2HPO4, 1.8 mM KH2PO4) pH 7.4, 20 C, 10 nM duplex, 28 ng/ul herring testes DNA competitor; EMSA per cited ref with competitor DNA; conditions: protein: recombinant; tags: StrepII/FLAG; chain copies: 2; 5' overhang 2 nt each end

T1 sequence (P03206 149-245): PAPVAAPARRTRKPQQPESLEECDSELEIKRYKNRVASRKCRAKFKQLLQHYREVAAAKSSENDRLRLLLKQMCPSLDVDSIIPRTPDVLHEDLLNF
Sequence of ZEBRA DBD WT (P03206 175-236): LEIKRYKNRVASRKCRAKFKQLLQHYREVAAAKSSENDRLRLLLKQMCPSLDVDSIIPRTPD
Sequence of GCN4 DBD WT (P03069 228-281): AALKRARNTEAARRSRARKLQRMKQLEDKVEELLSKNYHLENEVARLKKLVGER

B1: AP-1 (FP) (dsDNA)
DNA 1: AGCTTATGAGTCATTTTAT
DNA 2: AATAAAATGACTCATAAGC
Kd (GCN4 DBD WT): 0.0779 ± 0.0088 µM | Kd (ZEBRA DBD WT): 0.271 ± 0.025 µM

B2: oriLyt ZRE5 (EMSA) (dsDNA)
DNA 1: ATAGCTTATGTGCAATTTTATC
DNA 2: ATGATAAAATTGCACATAAGCT
binding result (Strep/FLAG:ZEBRA [1]): binds

B3: meZRE2 (EMSA) (dsDNA)
DNA 1: ATAGCTTATGAGCGATTTTATC
DNA 2: ATGATAAAATCGCTCATAAGCT
modifications: 5mC at position 13 of strand 1 and 11 of strand 2
binding result (Strep/FLAG:ZEBRA [2]): binds

B4: hemi-me C1 ZRE2 (EMSA) (dsDNA)
DNA 1: ATAGCTTATGAGCGATTTTATC
DNA 2: ATGATAAAATCGCTCATAAGCT
modifications: 5mC at position 13 of strand 1
binding result (Strep/FLAG:ZEBRA [3]): binds

B5: hemi-me C-2' ZRE2 (EMSA) (dsDNA)
DNA 1: ATAGCTTATGAGCGATTTTATC
DNA 2: ATGATAAAATCGCTCATAAGCT
modifications: 5mC at position 11 of strand 2
binding result (Strep/FLAG:ZEBRA [4]): binds

— PMC8754650, “Structural basis of DNA methylation-dependent site selectivity of the Epstein–Barr virus lytic switch protein ZEBRA/Zta/BZLF1”
